Patent US20240083991A1 (Pfizer, published 2024)

T1: human GDF8 (human, UniProt O14793 267-375)
T1 sequence (looked up): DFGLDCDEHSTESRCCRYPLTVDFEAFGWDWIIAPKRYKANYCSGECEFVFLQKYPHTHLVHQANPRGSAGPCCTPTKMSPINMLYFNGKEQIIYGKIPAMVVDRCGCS

T2: human mature BMP9 (human, UniProt Q9UK05 320-429)
T2 construct: also called GDF2; Human BMP9-biotin
T2 sequence: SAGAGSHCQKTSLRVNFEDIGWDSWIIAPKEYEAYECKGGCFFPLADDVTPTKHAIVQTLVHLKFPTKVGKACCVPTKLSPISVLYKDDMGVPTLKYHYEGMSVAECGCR

T3: rat BMP9 (mature) (rat, UniProt M0RB87 320-430, Chemically biotinylated for capture on the SPR chip; sites not stated. Natural mature BMP9 is a disulfide-linked homodimer; one monomer chain is given.)
T3 construct: Biotinylated for SPR capture; also called Rat BMP9-biotin
T3 sequence: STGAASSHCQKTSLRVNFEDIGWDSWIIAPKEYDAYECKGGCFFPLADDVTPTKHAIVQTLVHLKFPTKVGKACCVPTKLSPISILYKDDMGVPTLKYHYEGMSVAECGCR

T4: cyno BMP9 (mature) (cynomolgus monkey, UniProt G7PEU8 320-429)
T4 construct: mature; Biotinylated for SPR capture; also called Cyno BMP9-biotin; cynomolgus monkey BMP9
T4 sequence: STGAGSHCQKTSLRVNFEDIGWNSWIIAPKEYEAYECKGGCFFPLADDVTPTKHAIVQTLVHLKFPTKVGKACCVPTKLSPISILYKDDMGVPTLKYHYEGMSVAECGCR


Tests used:
human GDF8 = target: T1, human GDF8; experiment: cell-based or functional assay
human mature BMP9 [1] = target: T2, human mature BMP9; experiment: competition ELISA: antibody mixed with 5 nM BMP9-biotin, binding to coated ActRIIA (5 µg/ml) detected
Description: (§1) For competition ELISAs, each receptor protein was coated on a 384-well ELISA plate at its optimal coating concentration, 20 μl/well in PBS-CMF at 4° C. overnight. The next day, plates were washed 3 times with PBS+0.05% TWEEN™ 20 and blocked with PBS+1% BSA for 1 hr at RT with shaking. Anti-BMP9 Abs were serially diluted 3-fold in PBS+1% BSA, starting from 100 nM, then mixed with the same volume of the optimal concentration of biotinylated BMP9. The final concentration of biotinylated BMP9 corresponded to the EC₉₀ for each receptor, as determined in a preliminary experiment described above.
(§2) Serially diluted Abs were incubated with biotinylated BMP9 for at least 15 min at RT. Plates were washed as before, followed by addition of serially diluted Abs and the biotinylated BMP9 mixture. After incubating for 1 hr at RT, plates were washed 3 times with PBS+0.05% TWEEN™ 20. Secondary antibody was added (HRP-Streptavidin from BioLegend, cat #405210, 1:2000), followed by 1 hr incubation at RT. Plates were washed as before, signal was developed using TMB substrate, and the reaction stopped with 0.18 M H₂SO₄. Absorbance was read at 450 nm on an ENVISION® plate reader (Perkin Elmer).

human mature BMP9 [2] = target: T2, human mature BMP9; experiment: competition ELISA: antibody mixed with 1.5 nM BMP9-biotin, binding to coated BMPRII (2 µg/ml) detected
Description: as §1, §2

human mature BMP9 [3] = target: T2, human mature BMP9; experiment: competition ELISA: antibody mixed with 15 nM BMP9-biotin, binding to coated ActRIIB (5 µg/ml) detected
Description: as §1, §2

human mature BMP9 [4] = target: T2, human mature BMP9; experiment: cell-based or functional assay
human mature BMP9 [5] = target: T2, human mature BMP9; experiment: competition ELISA: antibody mixed with 0.6 nM BMP9-biotin, binding to coated BMPRII (1 µg/ml) detected
Description: as §1, §2

human mature BMP9 [6] = target: T2, human mature BMP9; experiment: cell-based or functional assay; remark: listed apart in the source
rat BMP9 (mature) = target: T3, rat BMP9 (mature); experiment: SPR (Biacore T200), 37° C., biotinylated BMP9 captured on Sensor Chip CAP, Fab as analyte, 1:1 model
Description: (§3) The running and sample buffer was 10 mM HEPES pH 7.4, 0.15 M NaCl, 3 mM EDTA, 0.05% P-20 (HBS-EP+). Biotinylated mature human, cyno, and rat BMP9 proteins were reversibly captured onto a Sensor Chip CAP using the Biotin CAPture Reagent (Cytiva, 28920234) according to the manufacturer's instructions. The final capture level of human BMP9 was 100 resonance units (RU), cyno BMP9 was 50 RU, and rat BMP9 was 60 RU. Flow cell 1, without BMP9, was used as a reference flow cell. A two-fold dilution series of the Ab1076 Fab ranging from 100 nM to 6.2 nM was injected for 60 seconds at a flow rate of 100 μl per minute and the dissociation was monitored for 1800 seconds. Rate constants and affinities were determined by fitting the double referenced sensorgram data to a 1:1 model in BIACORE™ Insight Evaluation software version 3.0.1.12.15655 (Cytiva).

cyno BMP9 (mature) = target: T4, cyno BMP9 (mature); experiment: as above
Description: as §3

human mature BMP9 [7] = target: T2, human mature BMP9; experiment: as above
Description: as §3

Binder | IC50 (read off the curve) (human mature BMP9 [1]) [nM] | IC50 (read off the curve) (human mature BMP9 [2]) [nM] | IC50 (read off the curve) (human mature BMP9 [3]) [nM] | IC50 (read off the curve): BMP9-induced pSMAD1/5/9 nuclear translocation, TIME cells (human mature BMP9 [4]) | IC50 (read off the curve) (human mature BMP9 [5]) [nM] | further results
Ab732 (antibody, human IgG1, lambda, V domains shown) VH: QVQLVQSGAEVKKPGASVKVSCKASGYTFTSYGISWVRQAPGQGLEWMGWISAYIGNTNYAQKLQGRVTMTTDTSISTAYMELSRLRSDDTAVYYCARAYYMDVWGQGTTVTVSS VL: NFMLTQPHSVSESPGKTVTISCTGSSGNIASNYVQWYQQRPGSAPTTVIYEDKQRPSGVPDRFSGSIDRSSNSASLTISGLKTEDEADYYCQSYDNHLSVVFGGGTKLTVLG | – | – | – | – | – | IC50 (read off the curve): GDF8-induced CAGA-luciferase activity, C2C12 reporter cells (human GDF8): ~600 nM
Ab89 (antibody, human IgG1, lambda, V domains shown, Parental anti-BMP9 antibody from a human phage library, human IgG1/lambda; The heavy chain can be prepared with or without the C-terminal lysine) VH: QVQLVQSGAEVKKPGASVKVSCKASGYTFTSYYMHWVRQAPGQGLEWMGIINPSGGSTSYAQKFQGRVTMTRDTSTSTVYMELSSLRSEDTAVYYCASRDYYGSGRVYYYYGMDVWGQGTTVTVSS VL: NFMLTQPHSVSESPGKTVTISCTGSSGSIASNYVQWYQQRPGSAPTTVIYEDNQRPSGVPDRFSGSIDSSSNSASLTISGLKTEDEADYYCQSYDSSIHVVFGGGTKLTVLG | ~2 | ~4 | ~8 | – | – | –
Ab101 (antibody, human IgG1, lambda, V domains shown, Parental clone converted to human IgG1/lambda; The heavy chain can be prepared with or without the C-terminal lysine; also called BMP9-0101) VH: QVQLVQSGAEVKKPGASVKVSCKASGYTFTSYGISWVRQAPGQGLEWMGWISAYNGNTNYAQKLQGRVTMTTDTSTSTAYMELRSLRSDDTAVYYCARAYGMDVWGQGTTVTVSS VL: NFMLTQPHSVSESPGKTVTISCTGSSGSIASNYVQWYQQRPGSAPTTVIYEDKQRPSGVPDRFSGSIDRSSNSASLTISGLKTEDEADYYCQSYDNSLSVVFGGGTKLTVLG | ~3 | – | ~10 | ~80 nM | – | –
Ab100 (antibody, human IgG1, lambda, V domains shown, Parental anti-BMP9 antibody, human IgG1/lambda; The heavy chain can be prepared with or without the C-terminal lysine) VH: QMQLVQSGAEVKKPGSSVKVSCKASGGTFSSYAISWVRQAPGQGLEWMGGIIPIFGTANYAQKFQGRVTITADESTSTAYMELSSLRSEDTAVYYCARVQLDLSYYYYYGMDVWGQGTTVTVSS VL: QSALTQPASVSGSPGQSITISCTGTSSDVGSYNLVSWYQQHPGKAPKLMIYEVSKRPSGVSDRFSGSKSANTASLTISGLQAEDEADYYCSSFSINGPSFVFGTGTKVTVLG | ~3 | ~4 | ~8 | – | – | –
Ab93 (antibody, human IgG1, lambda, V domains shown, Parental clone converted to human IgG1/lambda; The heavy chain can be prepared with or without the C-terminal lysine; also called BMP9-0093) VH: not shown VL: QSVLTQPPSASGTPGQRVTISCSVTNSDIDIDNVHWYQQLPGMAPKLLFFHDYRPSGVSDRFSGSKSGTSASLAIVGLQSEDEGYYYCAGLDVAMRGPVFGGGTKLTVLG | ~1 | ~4 | ~7 | ~0.1 nM | ~0.5 | IC50 (read off the curve): BMP9-induced pSMAD2 nuclear translocation, TIME cells (human mature BMP9 [6]): ~80 pM
Ab1076 Fab (Fab, V domains shown, Monovalent Fab fragment of Ab1076; also called Ab1076 Fab fragment) VH: not shown VL: QSVLTQPPSASGTPGQRVTISCSVTNTDIDIFNVHWYQQLPGTAPKLLFFHDYRPSGVSDRFSGSKSGTSASLAIVGLQSEDEGYYYCAGLDEAMRGPVFGGGTKLTVLG | – | – | – | – | – | Kd (rat BMP9 (mature)): 0.0986 nM; koff (rat BMP9 (mature)): 5.14e-05 s⁻¹; kon (rat BMP9 (mature)): 532000 M⁻¹ s⁻¹; Kd (cyno BMP9 (mature)): 0.0658 nM; koff (cyno BMP9 (mature)): 3.84e-05 s⁻¹; kon (cyno BMP9 (mature)): 585000 M⁻¹ s⁻¹; Kd (human mature BMP9 [7]): 0.0874 nM; koff (human mature BMP9 [7]): 3.84e-05 s⁻¹; kon (human mature BMP9 [7]): 440000 M⁻¹ s⁻¹
Ab352 (antibody, human IgG1, lambda, V domains shown, Optimized variant of Ab93; The heavy chain can be prepared with or without the C-terminal lysine) VH: EVQLVESGGGLVQPGGSLRLSCAASGFTFSNAWMSWVRQAPGKGLEWVGRIKSKTDSGTTDYAAPVKGRFTISRDNAKNSLYLQMNSLRAEDTAVYYCTTGTYWGQGTLVTVSS VL: QSVLTQPPSASGTPGQRVTISCSVTNSDIDIFNVHWYQQLPGTAPKLLFFHDYRPSGVSDRFSGSKSGTSASLAISGLRSEDEADYYCAGLDVAMRGPVFGGGTKLTVLG | – | – | – | ~50 pM | ~0.2 | –
Ab804 (antibody, human IgG1, lambda, V domains shown, Optimized variant of Ab93; The heavy chain can be prepared with or without the C-terminal lysine) VH: not shown VL: QSVLTQPPSASGTPGQRVTISCSVTNPDIDIFNVHWYQQLPGTAPKLLFFHEYRPSGVSDRFSGSKSGTSASLAIVGLQSEDEGYYYCAGLDEAMRGPVFGGGTKLTVLG | – | – | – | – | ~0.2 | –
